Measurements taken from PMC2900185 (Biochemistry, 2010).

Key:
[1] = biological target: Ste2p (R58A) (S. cerevisiae) (UniProt D6VTK4)
[2] = test system: Ste2p containing the substitution R58A; test: Binding of α-factor to Ste2p with substitution R58A; parameters: species or system Saccharomyces cerevisiae

UniProt D6VTK4, sequence (D6VTK4 whole entry R58A): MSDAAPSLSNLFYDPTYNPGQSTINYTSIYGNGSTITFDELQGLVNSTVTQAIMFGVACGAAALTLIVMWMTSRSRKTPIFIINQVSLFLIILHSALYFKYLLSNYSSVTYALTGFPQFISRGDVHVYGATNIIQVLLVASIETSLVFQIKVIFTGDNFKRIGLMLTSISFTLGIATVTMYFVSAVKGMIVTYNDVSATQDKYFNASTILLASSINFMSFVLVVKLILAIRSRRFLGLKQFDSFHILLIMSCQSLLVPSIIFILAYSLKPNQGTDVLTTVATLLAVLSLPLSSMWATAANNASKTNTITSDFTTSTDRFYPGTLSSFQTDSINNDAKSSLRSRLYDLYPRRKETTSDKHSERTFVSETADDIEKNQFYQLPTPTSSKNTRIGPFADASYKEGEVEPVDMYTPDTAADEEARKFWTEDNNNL

Substance | fold higher Kd than wild-type Ste2p [1] | fold lower affinity for α-factor relative to wild-type Ste2p [2]
α-factor (as used with the ste2 R58 mutants) (peptide) | 10 fold | –
WHWLQLKPGQPMY [α-factor] | – | ~10 fold
